± gives the uncertainty stated by the source.
Assay: amyloid nucleation score (Sup35N fusion, yeast selection) (log enrichment); library NNK3; higher = more nucleation; inactive = no reads after selection
In short: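 DiMSum was used to calculate nucleation scores as log enrichment of output over input reads, centred on the mode score of non-aggregating sequences. Sequences with fewer than 100 input reads were not scored. Input and output came from Illumina sequencing of plasmid inserts in psi-negative yeast expressing peptides of 20 random codons fused to Sup35N, induced 24 hours with 100 μM copper sulfate and then grown 7 days at 30°C on medium lacking adenine and uracil.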

| Substance | amyloid nucleation score |
| --- | --- |
| VVRFFLRTRTEGGYTWVLK | inactive |
| VVRYDEGVVLNSRFLLSPGW | inactive |
| VVSVLLDTI | inactive |
| VVTVARERYIVF | inactive |
| VVTVGVMT | inactive |
| VVWLSNSEWLRYLKDG | inactive |
| VWFLLPRGLRCV | inactive |
| VWGMMFNMCYRELCLAMTLF | inactive |
| VWILCNRPKRRMIYLTQCRM | inactive |
| VWKMRDTKHMGLLWLLWFIE | inactive |
| VWLRGDVLGMTLHGCSIVTR | inactive |
| VWNFPNILCFGWIFRA | 1.64 ± 0.093 |
| VWVFYWDKLRKF | inactive |
| VWVIVKTNLLLVAGQGGAFG | 0.693 ± 0.15 |
| VWVLGQLWFF | inactive |
| VWVLSA | inactive |
| VWVTFMRAVMTLELCLERMR | inactive |
| VWVTVRCLNYRPSYMPYRTR | 0.651 ± 0.32 |
| VYAEKMMVSSHLCGLRRRFK | inactive |
| VYCLRWKLYMLNEVS | inactive |
| VYLWKYRPQYPRVA | inactive |
| VYMLYQFSCPGVDNWVCTES | inactive |
| VYNLVDIESEPKVVFNGLFL | inactive |

| Substance | amyloid nucleation score |
| --- | --- |
| VYNRVHNCGMKVANYDTRDK | inactive |
| VYQSTSKF | inactive |
| VYRWVC | inactive |
| VYSFTAKHRYSWFVCNDGVK | inactive |
| VYSGESNQIYIMNWPVTSKQ | 0.062 ± 0.59 |
| VYSTSDAEVIVSVSRRGDFA | inactive |
| VYVAYALFRRD | -0.333 ± 0.9 |
| VYWHVWVALSCFMPANIGVV | inactive |
| VYWTEWTCMDIDGIQFLVNV | inactive |
| WAFHFGCCNDGMVR | inactive |
| WAIWAYRTLVESMWGTKIGK | inactive |
| WANMQETFWRMWTRPVLTCG | inactive |
| WAPACYTDSCVMIGGEPYRT | inactive |
| WAQLRSTWTSSKAYWLTA | inactive |
| WCFCGWMYIISFLSYKKHIM | inactive |
| WCQCRKLFWVYAHGEHFSSC | 1.09 ± 0.12 |
| WCSSWSRILTQVACVRHRKW | 0.926 ± 0.14 |
| WDAPMSNVDRL | inactive |
| WDCVNSAHWVLDMFSNSYVS | inactive |
| WDHTA | inactive |
| WDNWSTIRWTVYALSRKSAR | inactive |
| WEGYT | inactive |
| WENCKFWRTLPISVHEGHLD | inactive |

| Substance | amyloid nucleation score |
| --- | --- |
| WFFILD | inactive |
| WFMRFTLSLVTGLVNGSAWS | inactive |
| WFVSSWKNSHLKCGL | inactive |
| WFYMSRDGYEAVKRLTKLGK | inactive |
| WFYVDLFCGWTRDVNAASCL | inactive |
| WGFVW | inactive |
| WGLGAINIDMRRRLDPRCKR | 0.312 ± 0.32 |
| WGRGNAAMYGVFRSGNLLVI | inactive |
| WGSRHKIVCELGLPFYVLEG | inactive |
| WHKKLGYTSFNRKLGFMASG | 0.101 ± 0.45 |
| WHMWVLKYIFAGLVHSSPWG | inactive |
| WIFRFAYVVHDAWFSENRYP | inactive |
| WIKVDTPFEGFVRYAIDSGV | inactive |
| WILFCKNGAVTNLLVWECLC | inactive |
| WIVVENW | inactive |
| WKEVGHGRSASPSALK | inactive |
| WKRKRRLRELGITKVILRVL | inactive |
| WLCCNKTETPQSTRRWQEDD | inactive |
| WLCPYARFIRNRSLLFCMFW | inactive |
| WLDRVY | inactive |
| WLFRRVGMVTHAWMYWFKSR | inactive |
| WLFYLT | inactive |
| WLGPYVLHSSAGSGMVDNGT | inactive |

| Substance | amyloid nucleation score |
| --- | --- |
| WLHRTKLWPYFYVKLFPRDK | inactive |
| WLIKYPGYW | inactive |
| WLSFFRWR | inactive |
| WLSYLLNG | 1.91 ± 0.096 |
| WLVRMN | inactive |
| WLVYVVLRM | inactive |
| WLWDVDDYGNPLWVRHASVA | inactive |
| WMDRLFVSVTAVWRQPDVGI | 1.42 ± 0.11 |
| WMFLDTSGDIMPRGLTDYLE | inactive |
| WMRVSCDTRGYSSFQAY | -0.538 ± 0.75 |
| WMYHMHENYN | 1.18 ± 0.1 |
| WNCGSPPR | inactive |
| WNESAGGFRYFPEDAKCDRA | inactive |
| WNFNRVYHFLTIEMF | inactive |
| WNHLDERANELCCN | inactive |
| WNKGPQTQ | inactive |
| WNLLWLLFFLCLCHCGIMWK | inactive |
| WNMIFTQPNNQPIVVRDFVD | inactive |
| WNVLPATMMRFIRDMTGH | inactive |
| WPANGMSRLVNRL | inactive |
| WPLYGLDWNPLGFNLRWYKF | inactive |
| WPMMATLQYHDLLLAFLFRK | inactive |
| WQICSGA | inactive |

| Substance | amyloid nucleation score |
| --- | --- |
| WQLEKIDDDYLRVTVDEPSE | inactive |
| WQTMPGVRDGCAECEIYWG | inactive |
| WQTTDRLFSVKKSALLVGFC | inactive |
| WQVTCDFTFNLRFLFGFGDC | 0.617 ± 0.2 |
| WREAICLLICTIITVPWVNW | inactive |
| WRFQQQAFRYNWPWVILLLV | inactive |
| WRSASGVD | inactive |
| WRVHHFGWAGEY | inactive |
| WRYWDSFFL | inactive |
| WSCNISYTLLSMGRRLYSRR | inactive |
| WSDHMMRALERLPECINKLL | inactive |
| WSGCMWSCARGYGSFPSGPL | inactive |
| WSIRYVLICIGVSKIVCRPL | inactive |
| WSISSECGERVFRVRTCH | -0.548 ± 1 |
| WSKHVCLFENSKSPHFSEDS | inactive |
| WSLCGDVRTQHINHVSVQVS | inactive |
| WSLNWLMTFGLIYRQFSHLY | inactive |
| WSPKTLLM | inactive |
| WSRSSV | inactive |
| WSSFPFCSRVYVQTWIDLTN | 1.52 ± 0.14 |
| WSVITT | inactive |
| WSYHATTPHLRRYRLERSSN | inactive |
| WTIAVMVSVGKYMTGTAT | inactive |

| Substance | amyloid nucleation score |
| --- | --- |
| WTRMCSSVRTVR | inactive |
| WTVGCREWLSLCCSAKDTDA | inactive |
| WVCMVNSRRSCIRNS | 0.381 ± 0.75 |
| WVGLVPYPMVAQEVFNHQD | inactive |
| WVLLKSWQNCLLGELVSEVQ | inactive |
| WVPAGCKSVMVGGAG | inactive |
| WVQPSYRPSCVLYRSNNNNR | inactive |
| WVTIESNLCIVSFNRSRSQK | 2.66 ± 0.075 |
| WWHVIMYTGHKCNLSCDSVG | inactive |
| WWRDGDIRCKTSLNLGKRSF | inactive |
| WYALYAKYASTPGFCACLRG | inactive |
| WYCVAEYGHFKCPSRKYVFG | inactive |
| WYFPTQ | inactive |
| WYGVVDVDW | inactive |
| WYSNLMCTWISDDKTWQRIR | inactive |
| WYTVRSKYANHVNDRHSRRW | -0.507 ± 0.98 |
| WYWSSNPSGTDVGIDGVRIS | inactive |
| YAETPRFIRFY | -0.137 ± 0.78 |
| YAGQDEFFMVTVYIKPNDLC | 1.85 ± 0.085 |
| YAPFWS | inactive |
| YASSCDVKLMQSSPLAYEVD | inactive |
| YATACGMILQKVVGKLTLLA | -0.395 ± 0.46 |
| YCCIFRRFNGKNFFSCRG | inactive |

| Substance | amyloid nucleation score |
| --- | --- |
| YCDLY | inactive |
| YCGLVHVSHLGVGREIGRRV | inactive |
| YCGYNR | inactive |
| YCKSPVSANMHMNNGNTGSC | inactive |
| YCLRSSTGSEVRQWDDDSFK | inactive |
| YCMYMCFSVMAGGGIVTMLW | inactive |
| YCSIGLLCTSCIASVGIWVI | inactive |
| YCSVFRES | 0.014 ± 0.63 |
| YCTFDVCGFSSASSEGFNTA | 0.465 ± 0.32 |
| YCTGLIFPAFSNLEDSTLLF | inactive |
| YCTRNTCEIVGCILCGGLLS | 2.45 ± 0.086 |
| YCVLLRCNFFRSL | inactive |
| YCVQYVNDRQL | 1.85 ± 0.082 |
| YDDVVVI | inactive |
| YDGQMVRVRLYPSWEQVYCV | -1.1 ± 1.4 |
| YDKQENVEGLFALF | inactive |
| YDMVLRSHATVAYSHYGFDM | inactive |
| YDRNLNMCLQEMHRNIR | inactive |
| YDTAVYIIELGCNDNKSWVR | inactive |
| YDWSVPAKSS | inactive |
| YEYWYFCRDDNNFVYLIR | inactive |
| YFFCCLR | 2.44 ± 0.059 |
